One molecule from US20250136680A1 (SHANGHAI QILU PHARMACEUTICAL RESEARCH AND DEVELOPMENT CENTRE, published 2025) can be followed below.

In assay [1] the target is T1, cynomolgus CD3 (purchased from Acro, Cat. No. CDD-C52W4) (cynomolgus, UniProt Q95LI5 22-117).
T1 sequence (looked up): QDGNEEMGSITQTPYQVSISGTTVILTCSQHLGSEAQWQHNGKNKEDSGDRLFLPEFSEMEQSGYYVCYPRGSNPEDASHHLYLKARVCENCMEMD
The experiment in a line: SPR (Biacore 8K), CD3 immobilised directly on CM5, bispecific as analyte, 1:1 Langmuir fit. Background: Surface plasmon resonance follows binding to a sensor surface in real time, without labels.

For assay [2], the target named is human CD3 (purchased from Acro, Cat. No. CDD-H52W1) (human, UniProt P07766 23-126). The assay is described as above.
In assay [3] the target is T2, human DLL3 (hDLL3) expressed on tumor cells (human, UniProt Q9NYJ7 27-618).
T2 sequence (looked up): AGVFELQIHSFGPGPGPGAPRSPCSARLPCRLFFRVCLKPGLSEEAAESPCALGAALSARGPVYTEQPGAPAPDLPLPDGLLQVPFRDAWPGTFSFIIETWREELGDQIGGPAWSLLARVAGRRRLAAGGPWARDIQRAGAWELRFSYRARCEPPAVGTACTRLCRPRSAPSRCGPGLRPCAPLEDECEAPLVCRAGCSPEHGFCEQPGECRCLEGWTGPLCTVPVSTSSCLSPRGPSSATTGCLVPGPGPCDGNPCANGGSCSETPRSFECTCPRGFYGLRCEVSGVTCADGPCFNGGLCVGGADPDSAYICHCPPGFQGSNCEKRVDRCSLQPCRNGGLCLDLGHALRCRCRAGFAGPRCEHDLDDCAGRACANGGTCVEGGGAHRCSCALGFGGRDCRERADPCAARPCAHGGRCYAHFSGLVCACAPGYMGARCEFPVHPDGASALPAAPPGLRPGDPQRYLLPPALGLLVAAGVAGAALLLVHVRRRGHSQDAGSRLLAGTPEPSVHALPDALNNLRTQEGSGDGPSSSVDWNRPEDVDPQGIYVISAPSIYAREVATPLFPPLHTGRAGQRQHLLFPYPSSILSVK
The experiment in a line: cell-based or functional assay.

In assay [4] the target is T3, human CD3 (hCD3) naturally expressed on Jurkat cells (human, UniProt P07766 23-207).
T3 construct: whole, on cells; on the cells it is part of the whole TCR/CD3 complex; also called Jurkat cell line
The experiment in a line: flow cytometry (FACS) on Jurkat cells naturally expressing hCD3.

Assay [5] deals with T2, human DLL3 (hDLL3) expressed on tumor …. The experiment in a line: flow cytometry (FACS) on SHP-77 cells expressing hDLL3.
The target in assay [6] is T4, human DLL3 (purchased from Kaixia, Cat. No DLL-HM103) (human, UniProt Q9NYJ7 27-492, limits assumed).
T4 construct: Bought recombinant protein; also called human DLL3 protein
T4 sequence (looked up): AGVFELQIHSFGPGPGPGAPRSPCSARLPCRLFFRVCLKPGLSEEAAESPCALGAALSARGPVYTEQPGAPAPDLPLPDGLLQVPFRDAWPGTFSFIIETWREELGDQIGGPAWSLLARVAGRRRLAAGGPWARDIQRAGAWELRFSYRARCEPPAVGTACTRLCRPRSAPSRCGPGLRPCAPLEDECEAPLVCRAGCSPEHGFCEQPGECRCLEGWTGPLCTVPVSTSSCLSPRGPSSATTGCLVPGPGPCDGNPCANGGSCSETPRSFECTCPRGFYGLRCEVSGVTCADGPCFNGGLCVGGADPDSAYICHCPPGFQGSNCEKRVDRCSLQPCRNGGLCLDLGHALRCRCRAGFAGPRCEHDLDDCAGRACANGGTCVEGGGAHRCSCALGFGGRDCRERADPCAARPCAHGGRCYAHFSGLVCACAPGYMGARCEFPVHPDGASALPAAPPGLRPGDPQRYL
The experiment in a line: SPR (Biacore 8K), bispecific captured by anti-human Fc on CM5, DLL3 as analyte, 1:1 Langmuir fit.

In assay [7] the target is T5, cynomolgus DLL3 (purchased from Kaixia, Cat. No. DLL-RM103) (cynomolgus, UniProt A0A2K5WSR1 27-490).
T5 construct: Bought recombinant protein
T5 sequence: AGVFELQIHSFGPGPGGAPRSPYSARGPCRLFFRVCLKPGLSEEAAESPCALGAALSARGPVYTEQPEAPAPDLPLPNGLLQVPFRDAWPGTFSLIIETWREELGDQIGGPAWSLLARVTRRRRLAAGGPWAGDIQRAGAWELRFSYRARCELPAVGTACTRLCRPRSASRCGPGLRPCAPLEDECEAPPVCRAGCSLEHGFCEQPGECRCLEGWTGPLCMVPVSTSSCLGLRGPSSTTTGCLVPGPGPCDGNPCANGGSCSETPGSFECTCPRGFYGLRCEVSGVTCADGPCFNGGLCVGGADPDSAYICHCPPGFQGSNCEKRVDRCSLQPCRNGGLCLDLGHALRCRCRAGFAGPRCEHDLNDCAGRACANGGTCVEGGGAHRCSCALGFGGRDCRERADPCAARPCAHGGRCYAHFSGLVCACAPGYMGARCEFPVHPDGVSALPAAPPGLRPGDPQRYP
The description is as above.

Sequence of human CD3 (purchased from Acro, Cat. No. CDD-H52W1) (P07766 23-126): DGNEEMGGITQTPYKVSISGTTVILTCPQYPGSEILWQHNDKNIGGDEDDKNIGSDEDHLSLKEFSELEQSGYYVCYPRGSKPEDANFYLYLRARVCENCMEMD
T3 sequence (P07766 23-207): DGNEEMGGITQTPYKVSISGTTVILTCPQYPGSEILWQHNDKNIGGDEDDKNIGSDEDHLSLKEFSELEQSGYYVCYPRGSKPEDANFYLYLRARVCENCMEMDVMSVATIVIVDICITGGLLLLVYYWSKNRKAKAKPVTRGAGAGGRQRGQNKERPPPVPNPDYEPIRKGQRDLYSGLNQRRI

B1: Bispecific antibody 2 (bispecific antibody, IgG1)
heavy: not shown
chain: DKTHTCPPCPAPEAAGGPSVFLFPPKPKDTLMISRTPEVTCVVVDVSHEDPEVKFNWYVDGVEVHNAKTKPREEQYNSTYRVVSVLTVLHQDWLNGKEYKCKVSNKALPAPIEKTISKAKGQPREPQVCTLPPSRDELTKNQVSLSCAVKGFYPSDIAVEWESNGQPENNYKTTPPVLDSDGSFFLVSKLTVDKSRWQQGNVFSCSVMHEALHNRYTQKSLSLSPGK
light: EIVLTQSPATLSLSPGERATLSCRASQSINNNLHWYQQKPGQAPRLLIKYVSQSISGIPARFSGSGSGTDFTLTISSLEPEDFAVYYCQQTNAWPLTFGGGTKLEIKRTVAAPSVFIFPPSDEQLKSGTASVVCLLNNFYPREAKVQWKVDNALQSGNSQESVTEQDSKDSTYSLSSTLTLSKADYEKHKVYACEVTHQGLSSPVTKSFNRGEC
notes: Knob heavy chain: DLL3 VH-CH1-(G4S)3-CD3 scFv-EPKSS-IgG1 Fc (S354C, T366W, L234A/L235A); Hole chain: Fc only (Y349C, T366S, L368A, Y407V, H435R); Light chain: that of H2-39E2D11-NA; also called anti-CD3-DLL3 bispecific antibody
As usually defined, the Kd is the equilibrium constant for the complex coming apart. Low readings indicate tighter binding, high ones weaker binding. Broadly, the koff is the first-order rate constant of dissociation. In general, EC50 refers to the concentration giving half of the maximal effect. A word on the kon: it is a measure of how fast the partners come together. A low value points to slow association. Consider B1, for which the Kd in assay [1] turned out to be 11.1 nM; in assay [2] it was 9.09 nM; in assay [6], 0.647 nM; in assay [7], 0.887 nM. Also, the koff came to 0.00405 s⁻¹ in assay [1], 0.00414 s⁻¹ in assay [2], 7.92e-05 s⁻¹ in assay [6] and 8.6e-05 s⁻¹ in assay [7]. Moreover, in assay [3], the “TDCC EC50 (nM), NCI-H82 cell line” value was found to be 80.2 nM. Further, the “TDCC EC50 (nM), SHP-77 cell line” value in assay [3] is 136 nM. Further, the EC50 in assay [4] was 57.9 nM; in assay [5], 3.11 nM. Besides, the kon in assay [6] came to 122000 M⁻¹ s⁻¹; in assay [7], 97000 M⁻¹ s⁻¹.
